According to publication PMC11938149:

Molecular target: T1, Bacillus subtilis FtsZ^1-382 (for light scattering) (Bacillus subtilis) (UniProt P17865)
T1 sequence: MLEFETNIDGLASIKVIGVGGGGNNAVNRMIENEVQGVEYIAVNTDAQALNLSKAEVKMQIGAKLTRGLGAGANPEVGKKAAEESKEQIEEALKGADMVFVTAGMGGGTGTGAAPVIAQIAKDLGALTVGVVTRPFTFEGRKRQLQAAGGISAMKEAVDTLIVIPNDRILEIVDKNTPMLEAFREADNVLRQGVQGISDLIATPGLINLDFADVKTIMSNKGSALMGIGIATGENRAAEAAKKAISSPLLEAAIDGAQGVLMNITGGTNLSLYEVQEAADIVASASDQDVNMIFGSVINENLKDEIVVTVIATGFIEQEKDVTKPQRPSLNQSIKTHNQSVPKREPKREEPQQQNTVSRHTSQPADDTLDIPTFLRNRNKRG

B1: Bacillus subtilis MinC^1-224 wild type (for light scattering) (natural protein)
chain: MKTKKQQYVTIKGTKNGLTLHLDDACSFDELLDGLQNMLSIEQYTDGKGQKISVHVKLGNRFLYKEQEEQLTELIASKKDLFVHSIDSEVITKKEAQQIREEAEIISVSKIVRSGQVLQVKGDLLLIGDVNPGGTVRAGGNIFVLGSLKGIAHAGFNGNNQAVIAASEMLPTQLRINHVLNRSPDHIQKGNEMECAYLDTDGNMVIERLQHLAHLRPDLTRLEG
B1 showed an inhibition of FtsZ polymerization by light scattering (5 uM FtsZ, 15 uM MinC, HMK buffer pH 7.7, 100 mM potassium) of 50%.
